Results as given in PMC9852558 (The Journal of Biological Chemistry, 2022).
Each block holds one binder with its values, some of them ahead of it.

Tests used:
Test in all cases: SPR
FGFR2 (IIIb) = FGFR2 (IIIb) (Homo sapiens (assumed), UniProt P21802-3)
FGFR3 (IIIb) = FGFR3 (IIIb) (Homo sapiens (assumed), UniProt P22607-2)
FGFR4 = FGFR4 (Homo sapiens (assumed), UniProt P22455)
FGFR1β (IIIc)/Fc = FGFR1β (IIIc)/Fc (Homo sapiens, UniProt P11362, strain, biotinylated)
FGFR1 (IIIb) = FGFR1 (IIIb) (Homo sapiens, FGFR1 splice form IIIb, UniProt P11362, strain)
Sequence of FGFR1 (IIIb) (P11362 whole entry, looked up, change not shown, canonical isoform): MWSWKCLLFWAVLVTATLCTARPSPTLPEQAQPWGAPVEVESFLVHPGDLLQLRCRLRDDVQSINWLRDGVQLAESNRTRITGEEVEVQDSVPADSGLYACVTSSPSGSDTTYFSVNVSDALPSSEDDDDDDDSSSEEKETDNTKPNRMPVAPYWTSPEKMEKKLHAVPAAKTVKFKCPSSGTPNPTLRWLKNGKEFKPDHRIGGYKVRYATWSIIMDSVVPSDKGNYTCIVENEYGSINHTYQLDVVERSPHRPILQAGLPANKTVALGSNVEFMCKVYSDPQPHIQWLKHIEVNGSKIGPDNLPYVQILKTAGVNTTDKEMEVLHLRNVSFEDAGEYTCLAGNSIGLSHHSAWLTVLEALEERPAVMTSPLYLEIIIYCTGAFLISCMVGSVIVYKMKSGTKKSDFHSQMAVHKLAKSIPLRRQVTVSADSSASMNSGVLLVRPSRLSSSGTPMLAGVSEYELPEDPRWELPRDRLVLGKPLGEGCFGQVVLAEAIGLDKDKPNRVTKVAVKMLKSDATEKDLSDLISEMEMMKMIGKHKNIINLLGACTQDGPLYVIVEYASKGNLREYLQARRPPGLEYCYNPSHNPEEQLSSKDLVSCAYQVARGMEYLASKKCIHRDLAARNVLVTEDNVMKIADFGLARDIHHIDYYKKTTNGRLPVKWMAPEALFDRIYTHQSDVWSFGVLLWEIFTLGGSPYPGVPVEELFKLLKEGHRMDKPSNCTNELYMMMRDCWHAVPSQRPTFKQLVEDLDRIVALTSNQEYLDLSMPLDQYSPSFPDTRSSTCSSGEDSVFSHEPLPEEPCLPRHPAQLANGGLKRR

Sequence of FGFR4 (P22455 22-802): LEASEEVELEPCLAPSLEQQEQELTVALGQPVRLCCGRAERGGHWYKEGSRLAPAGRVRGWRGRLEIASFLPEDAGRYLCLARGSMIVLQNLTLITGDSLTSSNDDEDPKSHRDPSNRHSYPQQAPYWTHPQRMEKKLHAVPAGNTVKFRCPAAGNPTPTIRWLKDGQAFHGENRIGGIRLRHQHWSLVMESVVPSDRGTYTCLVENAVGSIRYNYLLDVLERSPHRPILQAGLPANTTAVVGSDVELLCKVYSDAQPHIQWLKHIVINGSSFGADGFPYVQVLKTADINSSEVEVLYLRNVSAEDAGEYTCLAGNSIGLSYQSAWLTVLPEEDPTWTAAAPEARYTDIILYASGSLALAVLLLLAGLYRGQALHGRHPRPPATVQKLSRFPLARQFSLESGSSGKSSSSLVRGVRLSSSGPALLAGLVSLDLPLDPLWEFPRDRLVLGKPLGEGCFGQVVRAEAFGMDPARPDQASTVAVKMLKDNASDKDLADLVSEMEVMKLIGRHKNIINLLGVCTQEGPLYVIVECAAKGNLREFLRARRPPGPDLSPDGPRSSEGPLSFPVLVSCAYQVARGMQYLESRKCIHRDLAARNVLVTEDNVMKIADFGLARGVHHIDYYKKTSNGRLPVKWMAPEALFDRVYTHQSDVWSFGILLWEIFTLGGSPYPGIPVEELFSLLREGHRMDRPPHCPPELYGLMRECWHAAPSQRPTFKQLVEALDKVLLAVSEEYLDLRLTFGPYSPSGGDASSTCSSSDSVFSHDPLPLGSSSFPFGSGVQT

- binding result (FGFR2 (IIIb)): no binding
- binding result (FGFR3 (IIIb)): no binding
- Kd (FGFR4): 0.0222 µM
- koff (FGFR4): 0.0527 s⁻¹
- kon (FGFR4): 2.37e+06 M⁻¹ s⁻¹
- Kd (FGFR1β (IIIc)/Fc): 0.00174 µM
- koff (FGFR1β (IIIc)/Fc): 0.00142 s⁻¹
- kon (FGFR1β (IIIc)/Fc): 819000 M⁻¹ s⁻¹
- Kd (FGFR1 (IIIb)): 0.0928 µM
- koff (FGFR1 (IIIb)): 0.0254 s⁻¹
- kon (FGFR1 (IIIb)): 274000 M⁻¹ s⁻¹
B1: clone VM34 (VHH)
VHH: QLQLVESGGGSVQAGGSLRLSCAASRSLSRFNVWTWYRQAPVKQRELVASITKSGDTNYAESVKGRFIISRDDDKNTVYLQMNNLKSEDTGIYYCAGSYYSGSYLYPSPGGFSVWGQGTQVTVSS

- Kd (FGFR1β (IIIc)/Fc): 0.00102 µM
- koff (FGFR1β (IIIc)/Fc): 0.00114 s⁻¹
- kon (FGFR1β (IIIc)/Fc): 1.11e+06 M⁻¹ s⁻¹
B2: clone VM35 (VHH)
VHH: QVQLVESGGGLVQAGGSLRLSCAVPGSIFRFNTMGWYRQPPGKQRELVAQMSRGGITKYGDSVKGRFTITRDNAKNTVHLQMNSLKPEDTAVYYCAGSYYSGSYYYPSPQGFSVWGQGTQVTVSP
